# Reference: PMC3405053
# Biological target: MKP-3, endogenous in mouse liver (mouse (endogenous in C57BL/6 liver)) (UniProt Q9DBB1)
# Assay: co-IP; liver lysates of C57BL/6 mice injected with adenoviruses (GFP or FOXO1 3A, plus shGFP or shMKP-3); MKP-3 immunoprecipitated with MKP-3 antibody-bound Exactra D matrix; western blot for FOXO1, quantified
# Sequence of UniProt Q9DBB1 (Q9DBB1 whole entry): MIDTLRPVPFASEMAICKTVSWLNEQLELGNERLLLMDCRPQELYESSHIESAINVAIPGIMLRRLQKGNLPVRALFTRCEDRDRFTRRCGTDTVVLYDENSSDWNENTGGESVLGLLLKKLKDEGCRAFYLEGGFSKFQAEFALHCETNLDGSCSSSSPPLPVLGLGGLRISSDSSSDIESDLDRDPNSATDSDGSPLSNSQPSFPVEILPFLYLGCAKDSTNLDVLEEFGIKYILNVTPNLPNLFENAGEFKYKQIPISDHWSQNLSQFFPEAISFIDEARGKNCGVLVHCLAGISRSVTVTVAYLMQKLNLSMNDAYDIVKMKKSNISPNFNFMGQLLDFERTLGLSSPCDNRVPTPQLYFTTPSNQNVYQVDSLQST
substance,measurement,value
"FOXO1 3A (Akt phosphorylation resistant FOXO1 mutant), over-expressed in mouse liver (from UniProt Q9R1E0 1-652) (natural protein)",fold of FOXO1/FOXO1 3A protein associated with MKP-3 compared to GFP control,7.9 fold
